Consider 14 variants from paper PMC6355003 (2019).

B1: Drp1 (dynamin-related protein Drp1), wild type [not stated] / GST-MiD51^133-463, wild type [human] (parent complex)
chain 1: MEALIPVINKLQDVFNTVGADIIQLPQIVVVGTQSSGKSSVLESLVGRDLLPRGTGIVTRRPLILQLVHVSQEDKRKTTGEENGVEAEEWGKFLHTKNKLYTDFDEIRQEIENETERISGNNKGVSPEPIHLKIFSPNVVNLTLVDLPGMTKVPVGDQPKDIELQIRELILRFISNPNSIILAVTAANTDMATSEALKISREVDPDGRRTLAVITKLDLMDAGTDAMDVLMGRVIPVKLGIIGVVNRSQLDINNKKSVTDSIRDEYAFLQKKYPSLANRNGTKYLARTLNRLLMHHIRDCLPELKTRINVLAAQYQSLLNSYGEPVDDKSATLLQLITKFATEYCNTIEGTAKYIETSELCGGARICYIFHETFGRTLESVDPLGGLNTIDILTAIRNATGPRPALFVPEVSFELLVKRQIKRLEEPSLRCVELVHEEMQRIIQHCSNYSTQELLRFPKLHDAIVEVVTCLLRKRLPVTNEMVHNLVAIELAYINTKHPDFADACGLMNNNIEEQRRNRLARELPSAVSRDKVASGGGGVGDGVQEPTTGNWRGMLKTSKAEELLAEEKSKPIPIMPASPQKGHAVNLLDVPVPVARKLSAREQRDCEVIERLIKSYFLIVRKNIQDSVPKAVMHFLVNHVKDTLQSELVGQLYKSSLLDDLLTESEDMAQRRKEAADMLKALQGASQIIAEIRETHLW
chain 2: MSLQEKLLTYYRNRAAIPAGEQARAKQAAVDICAELRSFLRAKLPDMPLRDMYLSGSLYDDLQVVTADHIQLIVPLVLEQNLWSCIPGEDTIMNVPGFFLVRRENPEYFPRGSSYWDRCVVGGYLSPKTVADTFEKVVAGSINWPAIGSLLDYVIRPAPPPEALTLEVQYERDKHLFIDFLPSVTLGDTVLVAKPHRLAQYDNLWRLSLRPAETARLRALDQADSGCRSLCLKILKAICKSTPALGHLTASQLTNVILHLAQEEADWSPDMLADRFLQALRGLISYLEAGVLPSALNPKVNLFAELTPEEIDELGYTLYCSLSEPEVLLQT

In the first experiment the parent is B1. The experiment in a line: GST pull-down, SDS-PAGE band quantification; parent: 0.15; read off a plot.
chain 1 A395D: the response was roughly 0.084 molar ratio. chain 1 G350D: the response was roughly 0.089 molar ratio.

On to chain 1 G350D, chain 1 G401A, chain 1 P402A, chain 1 R403A, chain 1 P404A, for which the response was roughly 0.017 molar ratio. Consider chain 1 G401A, chain 1 P402A, chain 1 R403A, chain 1 P404A, for which the response is roughly 0.064 molar ratio. In the case of chain 1 S600D, the response was roughly 0.16 molar ratio. Consider chain 1 A395D, chain 1 G401A, chain 1 P402A, chain 1 R403A, chain 1 P404A, for which the response was roughly 0.012 molar ratio. Same read-out and setting: the same measure for chain 1 G350D, chain 1 A395D: roughly 0.01 molar ratio; for chain 1 S579D: roughly 0.19 molar ratio.

The variants in the next experiment derive from B1. As to the kind of experiment: GST pull-down, SDS-PAGE band quantification; parent: 0.3; read off a plot.
Consider chain 2 R111E, for which the response was roughly 0.082 molar ratio. Take chain 2 F109A: the response was roughly 0.055 molar ratio. In the case of chain 2 E107R, the response was roughly 0.42 molar ratio. On the same count and under the same terms, in the case of chain 2 R102E it was roughly 0.082 molar ratio; in that of chain 2 S285Q, roughly 0.33 molar ratio. On the same count and under the same terms, in the case of chain 2 Y108A it was roughly 0.058 molar ratio.
